Data set [1] has as its system CC(=O)N[C@H]1[C@H](O[C@H]2[C@@H](O)[C@@H](CO)O[C@H](Oc3ccc([N+](=O)[O-])cc3)[C@@H]2NC(C)=O)O[C@H](CO)[C@@H](O)[C@@H]1O. The data set can be described thus: purified protein, by the assay type. The conditions noted are these: other: Core 3 substrate, 25° C., average of three measurements.
Data set [2] is described as follows: Hydrolysis of pNP substrates, colorimetric assay (Core 1). Format: biochemical. The note with it: Galβ1,3GalNAcα1pNP Core 1, 0.25 mM substrate, 25° C., 16 h, 405 nm.
Data set [3] is described as follows: Hydrolysis of pNP substrates, colorimetric assay (Core 2). It is filed as biochemical. The note with it: Galβ1,3(GlcNAcβ1,6)GalNAcα1pNP Core 2, 25° C., 16 h, 405 nm.
A short description of data set [4]: Hydrolysis of pNP substrates, colorimetric assay (Core 3). Format: biochemical.
Data set [5] in a line: Hydrolysis of pNP substrates, colorimetric assay (Galβ1,3GlcNAc). It is filed as biochemical.
The nature of data set [6]: Hydrolysis of pNP substrates, colorimetric assay (GalNAc). Format: biochemical. The note with it: GalNAcα1pNP, 25° C., 16 h, 405 nm.
Data set [7] can be described thus: Transglycosylation to 1-alkanols, Core 3 donor (TLC). The conditions noted are these: 0.8 mM GlcNAcβ1,3GalNAcα1ρNP donor, 1-alkanols as acceptors, room temperature, 16 h. Format: biochemical. From the text:
The transglycosylation activity can be similarly determined for EngAA*.

Data set [8] has as its target Propionibacterium acnes endo-α-GalNAcase EngPA (YP_056270.1), SEQ ID NO:3 (Cutibacterium acnes, UniProt A0ABM7H013). The data set can be described thus: Steady-state enzyme kinetics of EngPA. The note with it: EngPA compared with EngEF.
In data set [9] the test system is CC(=O)N[C@H]1[C@@H](Oc2ccc([N+](=O)[O-])cc2)O[C@H](CO)[C@H](O)[C@@H]1O[C@@H]1O[C@H](CO)[C@H](O)[C@H](O)[C@H]1O. As to the kind of experiment: purified protein, by the assay type. The conditions noted are these: 25.0 °C.
Data set [10] concerns Bifidobacterium longum endo-α-GalNAcase EngBF, SEQ ID NO:5. The conditions noted are these: Core 1 substrate; data from Fujita et al. (2005); cited from earlier work.

Consider “Propionibacterium acnes endo-α-GalNAcase EngPA (YP_056270.1), SEQ ID NO:3 (Cutibacterium acnes subsp. acnes)”, for which the kcat in data set [1] amounted to 28.9 s⁻¹.

For the molecule “EngSP: endo-α-GalNAcase from Streptococcus pneumoniae, purchased from Roche [reference compound]”, the “% product released” value is listed as 100% in data set [2]; 0.6% in data set [3]; 3% in data set [4]; 0% in data set [5]; 1.2% in data set [6]. Also, the transglycosylation products entry in data set [7] was “no significant difference”.

For `CC(=O)N[C@H]1[C@H](O[C@H]2[C@@H](O)[C@@H](CO)O[C@H](Oc3ccc([N+](=O)[O-])cc3)[C@@H]2NC(C)=O)O[C@H](CO)[C@@H](O)[C@@H]1O` [GlcNAcβ1,3GalNAcα1ρNP], the “kcat, times higher than EngEF” value in [8] (Core 3 substrate) was determined as 3 times.

Turning to “Clostridium perfringens endo-α-GalNAcase EngCP (YP_695137.1), SEQ ID NO:6 (Clostridium perfringens ATCC 13124)”, in data set [9], the Km was 70.93 µM and the kcat was 19.9 s⁻¹.

On to “Enterococcus faecalis endo-α-GalNAcase EngEF (NP_815498.1), SEQ ID NO:2 (Enterococcus faecalis V583)”, for which the kcat in data set [1] is 9.43 s⁻¹.

With `CC(=O)N[C@H]1[C@@H](Oc2ccc([N+](=O)[O-])cc2)O[C@H](CO)[C@H](O)[C@@H]1O[C@@H]1O[C@H](CO)[C@H](O)[C@H](O)[C@H]1O` [Galβ1,3GalNAcα1ρNP], in data set [10], the Km was 21.8 µM and the kcat was 17.8 s⁻¹. Besides, in data set [8] (Core 1 substrate), the “kcat, times lower than EngEF” value is recorded as “about 25 times”.

B1: EngPA: recombinant endo-α-GalNAcase of Propionibacterium acnes (protein)
chain: MSRTPRGRSIGALAVSAGTMLALIAPTAPAHAETRYRQINQAAITAVAADSATATDPISNTLDGNPDTIWHTTWQNGKDPLPHWIVFKLGDEAVNLGKVEITPRSSSNGSGRMHDYELYTANTKTCNNAAFSSAKPVATGSYGASDTSIRKITFAATKATCVKVKVNSSWGGDGSDEEVSSMAEFNAFTVDGSDPSPDPTPSEPPTPEVPKDAISLSDGTVTVRARRDFPQVIDYTVGHAHMAGRIGSPLTKVRINGADHVATVSAPTTTGSSASWKLTFRDLPGVELTADIKVSDGVMTWSIPHIVDTPDHRVNTVSVPGLTLASVTSTDPKAQLSSANIVVDRNKTGDLFQPLATADVSQDTSWVAMANDSTLAAGFEDNATQDGLVGSAATVARFVHSISQVGGTKVGAIEPATWVHRGKGSATPFPTDSLGNKAVCQLPGGATVKDGIGPDPDTPYVRVKIVADANADGKVDWQDAAVATRDVTMKPTGSGDVANKVITHIPFNIVSQATHPFLRTLDDVKRISLATDGLGQQALLKGYQAEGHDSAHPDYGGNVSHRAGGMKDLEKLTESGRQWNTDFGIHVNLVESYPEANHFGDNILVKPYQKAWDWMEQSYRMDYAKDLGSGQLFARLNQLRKELGAKSNLDWLYFDTNYPAGWQNDRIANALNAEGWRIGSEWSSTYPRYNQWSHWANDENYGTGNKGYSSRIIRFIDNSRRDTWNPDPILGNSNVVEYEGWTSHNDYNAFIANVWQRNLPTKFLQRSDIMSWQDGRIAFANGAVATSSKKSISGHEIPTARTITFDGATVFKEGGSYLLPWSNGGSDRLYYWNPGNGSATWKLTNSWAAQKSVSLFMLTDTGRVKVAEIPVTNRSIRIPATKAKTAYVLYPTSKVPAAKTPNWGEGSHFANPGFYSGDTAGWNARGNVSVKHNDRGNFHLEFGKAQSQISQVLNLPAGDHSLWAWVQIDPTKTRPVGLAVDGTGVTPIDHQKGCGGHAESVITSTTAINATASDEYFGTYHQRLRVAFHSDGRPVTVTLKALAGNAIVSADDFRVVDAAVPSDPHVTPATVLFQNFEDVDTGYWPFVTGSAGMEGDARTQLSRRHEPYTQKGWNGRAMDSVLSGDWSLKMHEERNGIVLRTTTASAPLTGGGTRYRISFDYQADKPGYSFVTGHDKVSGKSVKEVITESHAMGVATSTTHFSTDIVVKDQPAWIGFTHQGEGDMSIDNLRIEKLDPRPISVTSTQAAVFPDACKPTPEPIQPAQPSASAPTTSGSPQAPGTGNRPNRYALPRTGADGAGLGFSSSEAASATAAVGVSRQGR
modifications: Propionibacterium acnes
Consider B1, for which the “% product released” value in data set [2] was 100%; in [3], 0%; in data set [4] it was 100%; in data set [5] it was 0%; in data set [6], 1.8%. In data set [4], the “hydrolysis of the Core 3 disaccharide (in words)” value is reported as “fully hydrolyzing”. Besides, the transglycosylation products result in data set [7] is given as “no significant difference”.

B2: EngEF: recombinant endo-α-GalNAcase (O-glycosidase) of Enterococcus faecalis (protein, listed as Enterococcus faecalis)
chain: MKHGKIKRFSTLTLLASATILVPLSTSAEETTNSSTETSSSMVEPTATEEKLWQSDFPGGKTGEWQDVIGKTNRELAGESLAISRDAAAGNNAVSLNLDSPKLADGEVETKFKYTAGSGRTGVIIRGNTKDSWVFVGYNANGKWLVESPNSWNDSISGPTLNEDTNYLLKVRYVGEKITIWLNTTLIYEGEPVLANGDKIPTEAGHVGVRLWYDKKIVNYDYFKNGPVDSIPEIVPEVTQIAPVKVFTKIGVAPKLPKQVKVTYNTGKEANEAVRWNEIDPDAYKEPGTFEVDGTLENTNIKAKASIVVAKDNEAEKGDKISSADLTAVVDPQFPRIIRYEDPQSNQVIFNGQHEKIDQVMIDGKAYKATAEKQKSEANQAVYNVAVPEIGLRFTTTLTVSEGQELAMKLSDIREEGTKIHTISIPNQGLISVNSTDEGATFAGVVMNTGTNANNGNKNGDTIQDLTTTSQEETKKYMYGFLNTANYAASFWTNAYGDGSVDGSDNNRIHKQTKEAATGFVTTLSSGAWTYRPFDAPEDYTTGETPEVKVKFSKDSNDDNRVDWQDAAIGFRSIMNNPMGAEKVPELVNQRIPFNFASQATNPFLVTLDESKRIYNLTDGLGQMNLLKGYQNEGHDSAHPDYGAIGQRPGGEQALNQLIDEGHKLNAVFGVHINDTESYPEAKGFNEELVDPTKRGWDWLDPSYFIKQRPDTLSGRRYERFKELKQKAPNLDYIYVDVWGNQGESGWASRQLSKEINSLGWFTTNEFPNALEYDSVWNHWSAEKDYGGTTTKGFNSTIVRFIRNHQKDTWIISDNPLLGGAEFEAYEGWVGKTNFNTYRQKTFAINVPTKFLQHYQITNWETTTAADGQIYGTIKLANGAEKVTVTQADANSPRSITLNETEVLKGDAYLLPWNVNGQDKLYHWNPKGGTSTWSLDKKMQGKTNLHLYELTDQGRIDKGAIATTNNQVTIQAEANTPYVIAEPDSIEPMTFGTGTPFKDPGFNEANTLKNNWKVFRGDGEVKKDANGDYVFSSEKERTEIKQDINLPKPGKYSLYLNTETHDRKATVTVKIGGKKYTRTVNNSVAQNYIQADINHTSRKNPQYMQNMRIDFEIPDNAKKGSVTLAVDKGNSVTKFDDLRIVERQTDIMNPDKQTVIKQDFEDTQAVGLYPFVKGSAGGVEDPRIHLSERNEPYTQYGWNGNLVSDVLEGNWSLKAHKQGAGLMLQTIPQNIKFEPNKKYTVQFDYQTDGENVFTAGTINGELKNNNDFKPVGELTSTAADGQTKHYEAEIIGDASGNTTFGIFTTGADKDFIMDNFTVTVESKK
B2: the “% product released” value turned out to be 100% in [2]; 2% in data set [3]; 100% in data set [4]; 0% in data set [5]; 2.2% in data set [6]. In addition, in data set [4], the “hydrolysis of the Core 3 disaccharide (in words)” value is given as “fully hydrolyzing”. In addition, the transglycosylation products result in data set [7] was “no significant difference”.

Source of the values: patent publication US8969034B2, “Endoglycosidases that cleave O-linked glycans” (New England Biolabs, Inc., priority 2008, dated 2015).
